The text below walks through data of PMC9958131 (Nature Communications, 2023).

For one data set, the system named is PAD2 and PAD4. The experiment in a line: Citrullination site mapping of fibrinogen and vimentin by trypsin digestion and mass spectrometry (protein-level sheet, one search over native, PAD2-cit and PAD4-cit samples). The class given is biochemical, human. The note with it: modified residues found per protein; Deamidated [R..] = deamidated (citrullinated) arginine positions; trypsin digest, Sequest HT; not split by sample (native, PAD2-citrullinated, PAD4-citrullinated fibrinogen and vimentin). An excerpt: (§1) Description: Raw mass spectrometry data for proteolytic mapping of fibrinogen, vimentin, and hnRNP A2/B1 by cathepsins B, S, and H (sheets 1-6); citrullination site mapping of fibrinogen and vimentin by trypsin digestion (sheets 7-8); and the natural antigen processing assay with native, PAD2-citrullinated (PAD2-cit), and PAD4-citrullinated (PAD4-cit) fibrinogen (sheets 9-11).

The subject of data set [1] is recombinant human PAD2 and PAD4. Put plainly: Citrullination site mapping by trypsin digestion and mass spectrometry; protein-level modifications over native, PAD2- and PAD4-citrullinated samples combined. The class given is biochemical. The note with it: trypsin digest, Sequest HT search; co-identified proteins in the fibrinogen and vimentin samples (native, PAD2-cit, PAD4-cit); not split by sample or enzyme.
From the text: as §1

B1: C9JEU5 (protein)
chain: MSWSLHPRNLILYFYALLFLSSTCVAYVATRDNCCILDERFGSYCPTTCGIADFLSTYQTKVDKDLQSLEDILHQVENKTSEVKQLIKAIQLTYNPDESSKPNMIDAATLKSRKMLEEIMKYEASILTHDSSIRYLQEIYNSNNQKIVNLKEKVAQLEAQCQEPCKDTVQIHDITGKVKVDSPSLDCQDIANKGAKQSGLYFIKPLKANQQFLVYCEIDGSGNGWTVFQKRLDGSVDFKKNWIQYKEGFGHLSPTGTTEFWLGNEKIHLISTQSAIPYALRVELEDWNGRTSTADYAMFKVGPEADKYRLTYAYFAGGDAGDAFDGFDFGDDPSDKFFTSHNGMQFSTWDNDNDKFEGNCAEQDGSGWWMNKCHAGHLNGVYYQGGTYSKASTPNGYDNGIIWATWKTRWYSMKKTTMKIIPFNRLTIGEGQQHHLGGAKQAGDV
Consider B1, for which, in the data set on PAD2 and PAD4, the Modifications result is “Deamidated [R113; R134; R281; R290; R309; R409; R425]”.

B2: A0A0G2JMB2 (protein)
chain: ASPTSPKVFPLSLDSTPQDGNVVVACLVQGFFPQEPLSVTWSESGQNVTARNFPPSQDASGDLYTTSSQLTLPATQCPDGKSVTCHVKHYTNPSQDVTVPCPVPPPPPCCHPRLSLHRPALEDLLLGSEANLTCTLTGLRDASGATFTWTPSSGKSAVQGPPERDLCGCYSVSSVLPGCAQPWNHGETFTCTAAHPELKTPLTANITKSGNTFRPEVHLLPPPSEELALNELVTLTCLARGFSPKDVLVRWLQGSQELPREKYLTWASRQEPSQGTTTFAVTSILRVAAEDWKKGDTFSCMVGHEALPLAFTQKTIDRLAGKPTHVNVSVVMAEVDGTCY
For B2, in the data set on PAD2 and PAD4, the Modifications result is “Deamidated [R240; R250; R260]”.

B3: Interferon alpha-21 (protein, UniProt P01568 24-189, looked up)
Interferon alpha-21: CDLPQTHSLGNRRALILLAQMGRISPFSCLKDRHDFGFPQEEFDGNQFQKAQAISVLHEMIQQTFNLFSTKDSSATWEQSLLEKFSTELNQQLNDLEACVIQEVGVEETPLMNVDSILAVKKYFQRITLYLTEKKYSPCAWEVVRAEIMRSFSLSKIFQERLRRKE
Consider B3, for which, in data set [1], the “Modifications (Deamidated [R...] = citrullinated arginine positions found)” value is “Deamidated [R56]”.

B4: P0DPH8 (protein, UniProt P0DPH8 1-450, looked up)
chain: MRECISIHVGQAGVQIGNACWELYCLEHGIQPDGQMPSDKTIGGGDDSFNTFFSETGAGKHVPRAVFVDLEPTVVDEVRTGTYRQLFHPEQLITGKEDAANNYARGHYTIGKEIVDLVLDRIRKLADLCTGLQGFLIFHSFGGGTGSGFASLLMERLSVDYGKKSKLEFAIYPAPQVSTAVVEPYNSILTTHTTLEHSDCAFMVDNEAIYDICRRNLDIERPTYTNLNRLIGQIVSSITASLRFDGALNVDLTEFQTNLVPYPRIHFPLATYAPVISAEKAYHEQLSVAEITNACFEPANQMVKCDPRHGKYMACCMLYRGDVVPKDVNAAIATIKTKRTIQFVDWCPTGFKVGINYQPPTVVPGGDLAKVQRAVCMLSNTTAIAEAWARLDHKFDLMYAKRAFVHWYVGEGMEEGEFSEAREDLAALEKDYEEVGVDSVEAEAEEGEEY
modifications: full-length
As for B4, in the data set on PAD2 and PAD4, the Modifications entry was “Deamidated [R64; R84; R105; R339; R373; R422]”.

B5: Q9UM07 (protein)
chain: MAQGTLIRVTPEQPTHAVCVLGTLTQLDICSSAPEDCTSFSINASPGVVVDIAHGPPAKKKSTGSSTWPLDPGVEVTLTMKVASGSTGDQKVQISYYGPKTPPVKALLYLTGVEISLCADITRTGKVKPTRAVKDQRTWTWGPCGQGAILLVNCDRDNLESSAMDCEDDEVLDSEDLQDMSLMTLSTKTPKDFFTNHTLVLHVARSEMDKVRVFQATRGKLSSKCSVVLGPKWPSHYLMVPGGKHNMDFYVEALAFPDTDFPGLITLTISLLDTSNLELPEAVVFQDSVVFRVAPWIMTPNTQPPQEVYACSIFENEDFLKSVTTLAMKAKCKLTICPEEENMDDQWMQDEMEIGYIQAPHKTLPVVFDSPRNRGLKEFPIKRVMGPDFGYVTRGPQTGGISGLDSFGNLEVSPPVTVRGKEYPLGRILFGDSCYPSNDSRQMHQALQDFLSAQQVQAPVKLYSDWLSVGHVDEFLSFVPAPDRKGFRLLLASPRSCYKL
On to B5, for which the Modifications result in the data set on PAD2 and PAD4 is “Deamidated [R123; R137; R156; R205; R212; R218; R372; R374; R383; R394; R419; R427; R441; R484; R488; R495; R536; R544; R550; R555; R609; R639; R650]”.

B6: P03971 (protein, UniProt P03971 1-560, looked up)
chain: MRDLPLTSLALVLSALGALLGTEALRAEEPAVGTSGLIFREDLDWPPGSPQEPLCLVALGGDSNGSSSPLRVVGALSAYEQAFLGAVQRARWGPRDLATFGVCNTGDRQAALPSLRRLGAWLRDPGGQRLVVLHLEEVTWEPTPSLRFQEPPPGGAGPPELALLVLYPGPGPEVTVTRAGLPGAQSLCPSRDTRYLVLAVDRPAGAWRGSGLALTLQPRGEDSRLSTARLQALLFGDDHRCFTRMTPALLLLPRSEPAPLPAHGQLDTVPFPPPRPSAELEESPPSADPFLETLTRLVRALRVPPARASAPRLALDPDALAGFPQGLVNLSDPAALERLLDGEEPLLLLLRPTAATTGDPAPLHDPTSAPWATALARRVAAELQAAAAELRSLPGLPPATAPLLARLLALCPGGPGGLGDPLRALLLLKALQGLRVEWRGRDPRGPGRAQRSAGATAADGPCALRELSVDLRAERSVLIPETYQANNCQGVCGWPQSDRNPRYGNHVVLLLKMQVRGAALARPPCCVPTAYAGKLLISLSEERISAHHVPNMVATECGCR
modifications: full-length
Turning to B6, in the data set with PAD2 and PAD4, the Modifications result was “Deamidated [R499; R516; R522; R560]”.

B7: Fibrinogen a: α chain of human fibrinogen (Cayman Chemical), RA autoantigen; native or citrullinated by PAD2 or PAD4 (protein)
chain: MFSMRIVCLVLSVVGTAWTADSGEGDFLAEGGGVRGPRVVERHQSACKDSDWPFCSDEDWNYKCPSGCRMKGLIDEVNQDFTNRINKLKNSLFEYQKNNKDSHSLTTNIMEILRGDFSSANNRDNTYNRVSEDLRSRIEVLKRKVIEKVQHIQLLQKNVRAQLVDMKRLEVDIDIKIRSCRGSCSRALAREVDLKDYEDQQKQLEQVIAKDLLPSRDRQHLPLIKMKPVPDLVPGNFKSQLQKVPPEWKALTDMPQMRMELERPGGNEITRGGSTSYGTGSETESPRNPSSAGSWNSGSSGPGSTGNRNPGSSGTGGTATWKPGSSGPGSTGSWNSGSSGTGSTGNQNPGSPRPGSTGTWNPGSSERGSAGHWTSESSVSGSTGQWHSESGSFRPDSPGSGNARPNNPDWGTFEEVSGNVSPGTRREYHTEKLVTSKGDKELRTGKEKVTSGSTTTTRRSCSKTVTKTVIGPDGHKEVTKEVVTSEDGSDCPEAMDLGTL
B7: the Modifications result in the data set on PAD2 and PAD4 was “Deamidated [R42; R84; R114; R123; R129; R160; R216; R218; R258; R263; R271; R287; R308; R510; R512; R547; R573; R591]”.

B8: Q16610 (protein)
chain: MGTTARAALVLTYLAVASAASEGGFTATGQRQLRPEHFQEVGYAAPPSPPLSRSLPMDHPDSSQHGPPFEGQSQVQPPPSQEATPLQQEKLLPAQLPAEKEVGPPLPQEAVPLQKELPSLQHPNEQKEGTPAPFGDQSHPEPESWNAAQHCQQDRSQGGWGHRLDGFPPGRPSPDNLNQICLPNRQHVVYGPWNLPQSSYSHLTRQGETLNFLEIGYSRCCHCRSHTNRLECAKLVWEEAMSRFCEAEFSVKTRPHWCCTRQGEARFSCFQEEAPQPHYQLRACPSHQPDISSGLELPFPPGVPTLDNIKNICHLRRFRSVPRNLPATDPLQRELLALIQLEREFQRCCRQGNNHTCTWKAWEDTLDKYCDREYAVKTHHHLCCRHPPSPTRDECFARRAPYPNYDRDILTIDIGRVTPNLMGHLCGNQRVLTKHKHIPGLIHNMTARCCDLPFPEQACCAEEEKLTFINDLCGPRRNIWRDPALCCYLSPGDEQVNCFN
Turning to B8, the Modifications entry with PAD2 and PAD4 was “Deamidated [R171; R343]”.

B9: Q9NSB2 (protein)
chain: MSCRSYRVSSGHRVGNFSSCSAMTPQNLNRFRANSVSCWSGPGFRGLGSFGSRSVITFGSYSPRIAAVGSRPIHCGVRFGAGCGMGFGDGRGVGLGPRADSCVGLGFGAGSGIGYGFGGPGFGYRVGGVGVPAAPSITAVTVNKSLLTPLNLEIDPNAQRVKKDEKEQIKTLNNKFASFIDKVRFLEQQNKLLETKWSFLQEQKCIRSNLEPLFESYITNLRRQLEVLVSDQARLQAERNHLQDVLEGFKKKYEEEVVCRANAENEFVALKKDVDAAFMNKSDLEANVDTLTQEIDFLKTLYMEEIQLLQSHISETSVIVKMDNSRDLNLDGIIAEVKAQYEEVARRSRADAEAWYQTKYEEMQVTAGQHCDNLRNIRNEINELTRLIQRLKAEIEHAKAQRAKLEAAVAEAEQQGEATLSDAKCKLADLECALQQAKQDMARQLCEYQELMNAKLGLDIEIATYRRLLEGEESRLCEGVGPVNISVSSSRGGLVCGPEP
With B9, the Modifications entry in the data set with PAD2 and PAD4 is “Deamidated [R184]”.

B10: P04003 (protein, UniProt P04003 1-597, looked up)
chain: MHPPKTPSGALHRKRKMAAWPFSRLWKVSDPILFQMTLIAALLPAVLGNCGPPPTLSFAAPMDITLTETRFKTGTTLKYTCLPGYVRSHSTQTLTCNSDGEWVYNTFCIYKRCRHPGELRNGQVEIKTDLSFGSQIEFSCSEGFFLIGSTTSRCEVQDRGVGWSHPLPQCEIVKCKPPPDIRNGRHSGEENFYAYGFSVTYSCDPRFSLLGHASISCTVENETIGVWRPSPPTCEKITCRKPDVSHGEMVSGFGPIYNYKDTIVFKCQKGFVLRGSSVIHCDADSKWNPSPPACEPNSCINLPDIPHASWETYPRPTKEDVYVVGTVLRYRCHPGYKPTTDEPTTVICQKNLRWTPYQGCEALCCPEPKLNNGEITQHRKSRPANHCVYFYGDEISFSCHETSRFSAICQGDGTWSPRTPSCGDICNFPPKIAHGHYKQSSSYSFFKEEIIYECDKGYILVGQAKLSCSYSHWSAPAPQCKALCRKPELVNGRLSVDKDQYVEPENVTIQCDSGYGVVGPQSITCSGNRTWYPEVPKCEWETPEGCEQVLTGKRLMQCLPNPEDVKMALEVYKLSLEIEQLELQRDSARQSTLDKEL
modifications: full-length
For the molecule B10, the Modifications result with PAD2 and PAD4 was “Deamidated [R159; R329; R331; R485; R493]”.
